Experimental findings from the supplement of paper PMC9732359 are described below.

± gives the uncertainty stated by the source.

A short description of this data set: protein stability index of a GFP-peptide fusion (yeast GPS) (PSI 1-4); higher = more stable; sorted into four equal gates, so the index is relative within each strain. In short, it runs like this:
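Each library plasmid carries Cherry plus GFP with a tiled 17-residue yeast protein peptide fused downstream, and the pooled library was carried in yeast. Mid-log cultures in leucine-free medium were sorted into four equal gates by GFP/Cherry ratio. Reads from Illumina sequencing of PCR-amplified plasmids from each gate were assigned to strains by barcodes. Per peptide, the protein stability index was computed as the summed products of gate read frequency and gate number.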

Take VECAQHCIDYLRKNKLG [SMC4]: the protein stability index turned out to be 1.44 ± 0.07 (doa10∆), 1.19 ± 0.068 (pdr5∆), 1.62 ± 0.1 (san1∆) and 1.36 ± 0.058 (ubr1∆).

Turning to VEEAHDFNMKLAINAKT [RPB2], the protein stability index is 3.09 ± 0.072 (doa10∆), 3.03 ± 0.085 (pdr5∆), 3.08 ± 0.064 (san1∆) and 3.08 ± 0.05 (ubr1∆).

Regarding VEESSEKKQKTESQDVE [DPB4], the protein stability index stood at 2.8 ± 0.13 (doa10∆), 3.33 ± 0.12 (pdr5∆), 3.23 ± 0.13 (san1∆) and 3.03 ± 0.07 (ubr1∆).

The sequence VELIESKINELSYYVEE [SMC4] showed a protein stability index (doa10∆) of 3.29 ± 0.12, a protein stability index (pdr5∆) of 3.42 ± 0.082, a protein stability index (san1∆) of 3.28 ± 0.1 and a protein stability index (ubr1∆) of 3.4 ± 0.083.

VELPYGAHGYSGFYTFS [PRE1] registered a protein stability index (doa10∆) of 2.92 ± 0.17, a protein stability index (pdr5∆) of 2.32 ± 0.17, a protein stability index (san1∆) of 2.9 ± 0.13 and a protein stability index (ubr1∆) of 2.83 ± 0.095.

In the case of VESVCQKLDILVAKLKK [SMC4], the protein stability index is, setting by setting: (doa10∆) 1.9 ± 0.093; (pdr5∆) 2.19 ± 0.051; (san1∆) 2.24 ± 0.087; (ubr1∆) 2.12 ± 0.048.

VEVIKQLSLDASKTNLR [GAL11] gave a protein stability index (doa10∆) of 2.51 ± 0.063, a protein stability index (pdr5∆) of 2.62 ± 0.073, a protein stability index (san1∆) of 3.24 ± 0.077 and a protein stability index (ubr1∆) of 2.71 ± 0.049.

Take VEYKLTFVPTNSDKPRD [DIS3]: the protein stability index is, setting by setting: (doa10∆) 1.21 ± 0.14; (pdr5∆) 1.31 ± 0.094; (san1∆) 1.19 ± 0.24; (ubr1∆) 1.05 ± 0.11.

VFLLLQAYFSRLELPVD [BRR2]: the protein stability index by setting is: (doa10∆) 1.59 ± 0.05; (pdr5∆) 1.31 ± 0.043; (san1∆) 1.26 ± 0.089; (ubr1∆) 1.48 ± 0.041.

VFLLTTRAGGLGINLVT [ISW2]: the protein stability index was 1.69 ± 0.076 (doa10∆), 1.7 ± 0.063 (pdr5∆), 1.56 ± 0.13 (san1∆) and 1.4 ± 0.13 (ubr1∆).

Regarding VFSHAQTAVTCESCSTI [RPS27A], the protein stability index was 1.47 ± 0.091 (doa10∆), 1.2 ± 0.076 (pdr5∆), 1.16 ± 0.13 (san1∆) and 1.51 ± 0.076 (ubr1∆).

Take VFVDGEANWPLPVNIRR [RPO21]: the protein stability index was determined as 2.99 ± 0.081 (doa10∆), 3.06 ± 0.085 (pdr5∆), 3.12 ± 0.13 (san1∆) and 3.13 ± 0.072 (ubr1∆).

On to VGDEFKGYVFKISGGND [RPS6A], for which the protein stability index amounted to 3.08 ± 0.28 (doa10∆), 3.49 ± 0.13 (pdr5∆), 3.06 ± 0.15 (san1∆) and 3.58 ± 0.13 (ubr1∆).

Take VGFWKDDGDDEDLLECL [MTR3]: the protein stability index (doa10∆) came to 2.67 ± 0.15, the protein stability index (pdr5∆) is 3.42 ± 0.19 and the protein stability index (san1∆) came to 3.5 ± 0.22.

Take VGKDTPFTIYDGEAVAK [PRE5]: the protein stability index by setting is: (doa10∆) 2.7 ± 0.075; (pdr5∆) 3 ± 0.064; (san1∆) 3.14 ± 0.088; (ubr1∆) 3.15 ± 0.051.

Turning to VGSVTYQVDEDVKSSLS [YJL039C/NUP192], the protein stability index runs as follows: (doa10∆) 3.26 ± 0.15; (pdr5∆) 3.2 ± 0.13; (san1∆) 3.29 ± 0.062; (ubr1∆) 3.48 ± 0.1.

Regarding VHCRISCQIAQPYEDRP [RRP45], the protein stability index is, setting by setting: (doa10∆) 1.63 ± 0.064; (pdr5∆) 2.12 ± 0.12; (san1∆) 1.52 ± 0.22; (ubr1∆) 1.92 ± 0.077.

Take VHDIFSKIFNESFPDDI [CDC53]: the protein stability index was determined as 2.86 ± 0.069 (doa10∆), 2.91 ± 0.065 (pdr5∆), 2.87 ± 0.059 (san1∆) and 2.82 ± 0.06 (ubr1∆).

For VHGKAPMLMANNDVFTI [SSN3], the protein stability index stood at 2.79 ± 0.068 (doa10∆), 2.47 ± 0.07 (pdr5∆), 2.48 ± 0.095 (san1∆) and 2.72 ± 0.074 (ubr1∆).

Consider VHMYHKSLALLGYNFDG [SNF5], for which the protein stability index by setting is: (doa10∆) 2.26 ± 0.059; (pdr5∆) 1.78 ± 0.046; (san1∆) 2.02 ± 0.08; (ubr1∆) 2.02 ± 0.05.

Take VHNTVAAGNASSLPPGE [SNF5]: the protein stability index reads like this: (doa10∆) 2.82 ± 0.094; (pdr5∆) 2.75 ± 0.071; (san1∆) 2.94 ± 0.06; (ubr1∆) 2.75 ± 0.077.

As for VHPVNEREPVPLGILHI [RRP45], the protein stability index stood at 2.63 ± 0.16 (pdr5∆) and 2.15 ± 0.19 (ubr1∆).

On to VIEAKINHEDGFIETTE [RPN3], for which the protein stability index was found to be 1.17 ± 0.16 (doa10∆), 1.37 ± 0.11 (pdr5∆), 1.3 ± 0.19 (san1∆) and 1.13 ± 0.083 (ubr1∆).

Regarding VIFKIRDRTSGQKLLAI [SRB4], the protein stability index runs as follows: (pdr5∆) 3.17 ± 0.2; (san1∆) 3.5 ± 0.11; (ubr1∆) 3.33 ± 0.16.
